# Measurements reported in US20020090382A1, “Antiviral compounds and methods” (University of Pittsburgh of the Commonwealth System of …, priority 2000, published 2002).
# Numbering of substitutions follows the chain as printed. Names and notes keep the numbering of the source.
# B1: L25D (protein)
# chain: KYALIDASLKMADPNRFRGKDLPVDDQLTDPPGVRRVYHIQAGLPDPFQPPSLPITVYYAVLERACRSVLLNAPSEAPQIVRGASEDVRKQPYNLTIAWFRMGGNCAIPITVMEYTECSYNKSLGACPIRTQPRWNYYDSFSAVSEDNLGFLMHAPAFETAGTYLRLVKINDWTEITQFILEHRAKGSCKYALPLRIPPSACLSPQAYQQGVTVDSIGMLPRFIPENQRTVAVYSLKIAGWHGPKAPYTSTLLPPELSETPNATQPELAPEDPEDSALLEDPVGTVAPQIPPNWHIPSIQDAATPYHPPATPNNMGLIAGAVGGSLLAALVICGIVYWMHRRTRKAPKRIRLPHIREDDQPSSHQPLFY
# B2: L25T (protein)
# chain: B1 chain with D25T
# B3: L25H (protein)
# chain: B1 chain with D25H
# B4: D26H (protein)
# chain: B1 chain with D25L, D26H
# Tested on: VD60 cells
# Assay: Transient complementation of gD-null virus KΔUS3-8Z, titers on VD60 cells
# Format: cell-based
# Conditions: relative to wild-type gD (100%) and gD− (0%); KΔUS3-8Z virus
# Description: (§1) In a first transient complementation assay, several cell lines were employed. VD60 cells express wild-type gD endogenously which complements the deleted gD gene of KΔUS3-8Z for plaque formation, but only if the virus can initially infect using the gD product of the transfected gene. Thus, plaque formation on VD60 cells indicates complementation of gD's attachment/entry function by the transfected gene. CHO cells lack gD receptors and are resistant to HSV infection, but CHO cells transduced with HveA or HveC expression plasmids (CHO-HveA and CHO-HveC cells, respectively) are susceptible. KΔUS3-8Z misses the complete gD gene (US6) due to a large deletion extending from US3 to US8 and therefore offers no target for homologous recombination with transfected gD genes or the stable gD gene of VD60 cells. […] Since the progeny virus lacks gD, plaques will not form on these cells and virus entry was therefore determined by measurement of lacZ reporter gene expression.
# (§2) To conduct the assay, Vero cells were transfected with LIPOFECTAMINE-PLUS (GIBCO) for 4 h at 37° C., the cell monolayers washed and incubated with DMEM/10% fetal bovine serum (FBS) for 16 h at 37° C., and the transfected cells infected with KΔUS3-8Z at an MOI of 3 for 2 h at 37° C. After removal of the medium and inactivation of residual extracellular virus by incubation of the monolayer with 0.1M glycine (pH 3.0) for 1 min at room temperature, fresh medium was added and the cells incubated at 37° C. for 48 hours. The medium was subsequently removed and temporarily stored on ice while the cells were being lysed by freeze-thawing and sonication. Cell debris was pelleted by low-speed centrifugation and the supernatant combined with the previously stored medium. Virus titers were determined on gD-complementing VD60 cells. Complementing activity was determined by infection of CHO-HveA, CHO-HveC, and control CHO-K cells. Infected cells were lysed in a buffer containing 1% NP-40, 1 mM MgCl2, 50 mM β-mercaptoethanol, and 4 mg/ml β-galatosidase substrate O-nitrophenyl β-D-galactopyranoside (ONPG, Sigma) in a total volume of 50 μl. The enzyme-substrate reaction was carried out at 37° C. and stopped by addition of an equal volume of 1M Na2CO3 after color development. β-galactosidase activity was measured by reading the absorbance at 420 nm. One hundred percent complementation was defined as the difference between the A420 values obtained for the wild-type (pSP72-gD) and negative control (pgD^−) gD plasmids. Relative complementation efficiencies were calculated as 100%×[A420(mutant)−A420(gD^−)]/[A420(wild type)−A420(gD^−)].
row,Molecule,% Complementation VD60 [%]
1,B1,10
2,B2,14
3,B3,14
4,B4,17

# Tested on: CHO-HveA cells
# Assay: Transient complementation of gD-null virus KΔUS3-8Z, entry into CHO-HveA cells (lacZ)
# Format: cell-based, Chinese hamster
# Conditions: relative to wild-type gD (100%) and gD− (0%); KΔUS3-8Z virus, A420 β-galactosidase
# Description: as §1, §2
row,Molecule,% Complementation CHO-HveA [%]
1,B1,0
2,B2,0
3,B3,0
4,B4,10

# Tested on: CHO-HveC cells
# Assay: Transient complementation of gD-null virus KΔUS3-8Z, entry into CHO-HveC cells (lacZ)
# Format: cell-based, Chinese hamster
# Conditions: relative to wild-type gD (100%) and gD− (0%); KΔUS3-8Z virus, A420 β-galactosidase
# Description: as §1, §2
row,Molecule,% Complementation CHO-HveC [%]
1,B1,14
2,B2,3
3,B3,12
4,B4,11
